Where two headings read alike, the source gives them in different places.
What was measured:
Assay in all cases: cell-based or functional assay
[1] = biological target: HIV-1 SF162 Env (parental) (HIV-1 isolate SF162) (UniProt P19551)
[2] = biological target: SF162 Env with CRF01_AE consensus V3 region (HIV-1 isolate SF162; HIV-1 CRF01_AE consensus) (UniProt P19551)
[3] = biological target: SF162 Env with V3 substitution A22T (HIV-1 isolate SF162) (UniProt P19551)
[4] = biological target: SF162 Env with clade A1 consensus V3 region (HIV-1 isolate SF162; HIV-1 clade A1 consensus) (UniProt P19551)
[5] = biological target: JR-FL Env N160K/E168K mutant (HIV-1 isolate JR-FL)
[6] = biological target: SF162 Env with clade H consensus V3 region (HIV-1 isolate SF162; HIV-1 clade H consensus) (UniProt P19551)
[7] = biological target: SF162 Env with GKV at positions 167-169 (HIV-1 isolate SF162) (UniProt P19551)
[8] = biological target: SF162 Env with clade F consensus V3 region (HIV-1 isolate SF162; HIV-1 clade F consensus) (UniProt P19551)
[9] = biological target: SF162 Env with clade C consensus V3 region (HIV-1 isolate SF162; HIV-1 clade C consensus) (UniProt P19551)
[10] = biological target: SF162 Env with CRF02_AG consensus V3 region (HIV-1 isolate SF162; HIV-1 CRF02_AG consensus) (UniProt P19551)
[11] = biological target: SF162 Env with clade B consensus V3 region (identical to that of JR-FL) (HIV-1 isolate SF162; HIV-1 clade B consensus) (UniProt P19551)
[12] = biological target: SF162 Env with V3 substitution T13H (HIV-1 isolate SF162) (UniProt P19551)
[13] = biological target: SF162 Env with V3 substitution D25E (HIV-1 isolate SF162) (UniProt P19551)
[14] = biological target: chimeric JR-FL Env with the V1/V2 domain of SF162 (HIV-1 isolate JR-FL; HIV-1 isolate SF162) (UniProt P19551)
[15] = biological target: HIV-1 SF162 Env (parental) (HIV-1 isolate SF162) (UniProt P19551); remark: listed apart in the source
[16] = biological target: SF162 Env with NI at positions 160-161 and GKV at positions 167-169 (HIV-1 isolate SF162) (UniProt P19551)
[17] = biological target: HIV-1 JR-FL Env (parental) (HIV-1 isolate JR-FL)
[18] = biological target: chimeric SF162 Env with the V1/V2 domain of JR-FL (HIV-1 isolate SF162; HIV-1 isolate JR-FL) (UniProt P19551)
[19] = biological target: SF162 Env with NI at positions 160-161 (HIV-1 isolate SF162) (UniProt P19551)
[20] = biological target: SF162 Env with GKV at positions 167-169 (HIV-1 isolate SF162) (UniProt P19551); remark: listed apart in the source
[21] = biological target: JR-FL Env with GK at positions 167-168 (HIV-1 isolate JR-FL)
[22] = biological target: SF162 Env with clade B consensus V3 region (identical to that of JR-FL) (HIV-1 isolate SF162; HIV-1 clade B consensus) (UniProt P19551); remark: listed apart in the source

Q: Which ND50 (pseudovirus neutralization) [1] does the source give for monoclonal antibody 2909 here?
A: 5.8e-05 µg/mL

Q: What about the ND50 (pseudovirus neutralization) [2] of the same substance?
A: > 20 µg/mL

Q: And the ND50 ratio (fold increase in ND50 over the SF162 sequence) [2]?
A: > 344000 fold

Q: What about the fold increase in ND50 over SF162 [3] of the same substance?
A: 46 fold

Q: And the ND50 (pseudovirus neutralization) [4]?
A: 0.0064 µg/mL

Q: What about the ND50 ratio (fold increase in ND50 over the SF162 sequence) [4] of the same substance?
A: 110 fold

Q: What about the ND50 (pseudovirus neutralization) [5] of the same substance?
A: < 0.04 ng/mL

Q: What about the neutralization potency relative to 2F5 [5] of the same substance?
A: > 140 fold

Q: What about the neutralization potency relative to 2G12 [5] of the same substance?
A: > 500 fold

Q: What about the neutralization potency relative to IgG-b12 [5] of the same substance?
A: 20 fold

Q: And the neutralization potency relative to a pool of potent V3-specific mAbs [5]?
A: 4000 fold

Q: What about the percent neutralization at 20 ng/ml (% neutralization at 20 ng/ml) [5] of the same substance?
A: > 99

Q: What about the ND50 (pseudovirus neutralization) [6] of the same substance?
A: 0.17 µg/mL

Q: What about the ND50 ratio (fold increase in ND50 over the SF162 sequence) [6] of the same substance?
A: 2930 fold

Q: And the fold increase in 2909 concentration required for 50% neutralization, over SF162 [7]?
A: > 1000 fold

Q: What about the ND50 (pseudovirus neutralization) [8] of the same substance?
A: 0.0076 µg/mL

Q: And the ND50 ratio (fold increase in ND50 over the SF162 sequence) [8]?
A: 131 fold

Q: What about the ND50 (pseudovirus neutralization) [9] of the same substance?
A: 0.0048 µg/mL

Q: What about the ND50 ratio (fold increase in ND50 over the SF162 sequence) [9] of the same substance?
A: 83 fold

Q: What about the ND50 (pseudovirus neutralization) [10] of the same substance?
A: 0.037 µg/mL

Q: What about the ND50 ratio (fold increase in ND50 over the SF162 sequence) [10] of the same substance?
A: 637 fold

Q: And the ND50 (pseudovirus neutralization) [11]?
A: 0.051 µg/mL

Q: What about the ND50 ratio (fold increase in ND50 over the SF162 sequence) [11] of the same substance?
A: 879 fold

Q: What about the fold increase in ND50 over SF162 [12] of the same substance?
A: 8.3 fold

Q: What about the fold increase in ND50 over SF162 [13] of the same substance?
A: 2.3 fold

Q: And the ND50 (pseudovirus neutralization) [14]?
A: 0.065 µg/mL

Q: And the ND50 (pseudovirus neutralization) [15]?
A: 0.00049 µg/mL

Q: What about the ND50 (pseudovirus neutralization) [16] of the same substance?
A: > 10 µg/mL

Q: And the ND50 (pseudovirus neutralization) [17]?
A: > 10 µg/mL

Q: And the ND50 (pseudovirus neutralization) [18]?
A: > 10 µg/mL

Q: What about the ND50 (pseudovirus neutralization) [19] of the same substance?
A: > 10 µg/mL

Q: And the ND50 (pseudovirus neutralization) [20]?
A: 0.54 µg/mL

Q: What about the ND50 (pseudovirus neutralization) [21] of the same substance?
A: > 10 µg/mL

Q: What about the ND50 (pseudovirus neutralization) [22] of the same substance?
A: 0.145 µg/mL

From patent US20110311569A1
